Target: SARS-CoV-2 spike protein, original Wuhan strain (WT) (SARS-CoV-2, UniProt P0DTC2 14-1273)
Experiment: cell-based or functional assay

B1: A19-61.1 (antibody, V domains shown)
VH: QVQLVESGGGVVQPGRSLRLSCAASGFTFSSYAFHWVRQAPGKGLEWVAVISYDGSNQYYADSVKGRFTISRDNSKNTLYLQMNSLRADDTAVYYCARDLAIAVAGTWHYYNGMDVWGQGTTVTVSS
VL: DIQMTQSPSSVSASVGDRVIITCRASQGISSWLAWYQQKPGKAPKVLIYDASSLQSGVPSRFSGSGYGTDFTLTISSLQPEDSATYYCQQAKSFPITFGQGTRLEIK
IC50, pseudovirus neutralization: 0.172 nM

Reference: patent publication US20240109955A1 (published 2024)
